Assay results reported in patent US20080305111A1, “Anti-C35 antibodies for treating cancer” (VACCINEX, INC., priority 2006, published 2008).

T1: recombinant human C35 (rhC35) (Homo sapiens, UniProt Q9BRT3)
T1 construct: made in house; host or cells: E. coli
T1 sequence (Q9BRT3 1-115): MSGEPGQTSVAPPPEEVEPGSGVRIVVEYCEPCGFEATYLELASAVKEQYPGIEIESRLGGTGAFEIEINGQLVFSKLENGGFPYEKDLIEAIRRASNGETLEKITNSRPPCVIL

T2: C35 (Homo sapiens, UniProt Q9BRT3)
T2 sequence (Q9BRT3 1-115): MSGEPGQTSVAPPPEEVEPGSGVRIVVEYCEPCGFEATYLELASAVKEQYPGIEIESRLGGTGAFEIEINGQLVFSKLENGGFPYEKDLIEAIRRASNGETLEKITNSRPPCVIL

B1: 1B3: mouse monoclonal anti-C35 antibody from hybridoma 1B3.6.1, gamma1 isotype, kappa light chain (SEQ ID NO:8, 10) (antibody, V domains shown)
VH: EVQLQESGPSLVKPSQTLSLTCSVTGDSITSGYWNWIRKFPGNKLEYVGYISYSGGTYYNPSLKSRISITRDTSKNHYYLQLNSVTTEDTATYYCARGAYYGGAFFPYFDVWGAGTTVTVSS
VL: DVQITQSPSFLAASPGETITINCRASKYISKHLVWYQEKPGETKKLLIYSGSTLQSGLPSRFSGSGSGTDFTLTISSLEPEDFAMYYCQQHNEYPLTFGAGTKLELK
B2: 1F2: mouse monoclonal anti-C35 antibody from hybridoma 1F2.4.1, gamma1 isotype, kappa light chain (SEQ ID NO:4, 6) (antibody, V domains shown)
VH: DVQLQESGPGLVKPSQSLSLTCSVTGYSITSGYFWNWIRQFPGNKLEWMGYISYDGSNNSNPSLKNRISFTRDTSKNQFFLKFNSVTTDDSAAYYCTRGTTGFAYWGQGTLVTVSA
VL: QIVLTQSPAIMSASPGEKVTISCSASSSVSYMNWYQQKPGSSPKPWIYHTSNLASGVPARFSGSGSGTSYSLTISSMEAEDAATYYCQQYHSYPPTFGGGTKLEIK

Tests used:
[1] = target: T1, recombinant human C35 (rhC35); assay: Epitope mapping by Lys-C digestion of rhC35 and Western blot; format: binding; conditions: residues numbered from amino terminal methionine of native human C35
Excerpt: To localize the epitope specificity of 1B3 and 1F2 antibodies, recombinant human C35 (rhC35) synthesized with a 6×His tag in E. coli was digested with Lys-C endoproteinase. This enzyme cuts after lysine (K) residues in the protein sequence. […] The full sequence of rhC35, including the amino terminal 6×His tag addition is shown. Amino acid positions are numbered relative to the amino terminal methionine (M) of the native human sequence. Note that digestion at the first and third lysine followed by negatively charged residues is inefficient and some longer combination fragments may be generated. Lys-C endoproteinase was added to purified rhC35 at a 50:1 weight ratio and incubated for 18 hours at 37° C. in 25 mM Tris, pH 8.0. The digest was ethanol precipitated and resolubilized in reducing Tricine sample buffer. […] Peptides were transferred to PVDF membranes and the blots depicted in FIG. 10 were either stained with Coomassie blue (lanes 1-3 of both left and right panels) to detect all peptides or processed with one of the following: 1 μg/ml of the murine 1F2 anti-C35 antibody followed by alkaline phosphatase conjugated goat anti-mouse antibody (lane 4 of left panel); 1 μg/ml of the 1B3 anti-C35 immunoglobulin variable regions linked to human constant regions (MAb11) followed by alkaline phosphatase conjugated goat anti-human antibody (lane 5 of left panel); or anti-6×His tag mouse antibody (Amersham) followed by alkaline phosphatase conjugated goat anti-mouse antibody (lane 4 and 5 of right panel). BCIP/NBT substrate was added and developed to detect the secondary reagents. Molecular weight markers are indicated in the flanking lanes of both panels.
In FIG. 10, the indicated band A migrates at the position of undigested rhC35. Note that band B stains with 1F2 but not MAb11 (1B3) anti-C35 antibody while band C stains with neither 1F2 nor MAb11 (1B3) antibody. Since bands B and C both do stain with anti-6×His tag antibody to the 6×His tag at the amino terminus of rhC35, it may be concluded that both fragments lack C-terminal peptide fragments. […]

[2] = system: C35-positive MDA231 tumor cells; assay: Two C35 antibodies and paclitaxel in MDA231 xenograft (FIG. 12); format: in vivo, Swiss nude mice; conditions: antibody 20 mg/kg i.v. twice weekly for three weeks, paclitaxel 30 mg/kg i.p. days 17 and 24
Protocol: As illustrated in FIG. 12 and described in this example, methods of treating cancer directed to the administration of two C35 antibodies in combination with a chemotherapeutic agent were tested. Five million C35-positive MDA231 tumor cells were implanted subcutaneously in the mammary fat pads of Swiss nude mice. Groups of at least five mice each received the following treatments, beginning on day 17 post-graft: • 1. No Treatment (Control Group) • 2. 30 mg/kg i.p. injection of paclitaxel on days 17 and 24. • 3. 30 mg/kg i.p. injection of paclitaxel on days 17 and 24, together with 400 μg per i.v. injection (20 mg/kg) of 1F2 murine monoclonal antibody starting on day 17 and continuing twice weekly for three weeks. • 4. 30 mg/kg i.p. injection of paclitaxel on days 17 and 24, together with 400 μg per i.v. injection (20 mg/kg) of […] murine monoclonal antibody starting on day 17 and continuing twice weekly for three weeks. • 5. […]
Average mouse tumor volume was measured at various time points post-graft. Two measurements were taken with vernier calipers on each tumor; tumor volume was calculated using the formula (length×width^2)/2. […]

C35 = target: T2, C35; assay: Characterisation of hybridoma antibodies (ELISA, Western blot, immunohistochemistry, competitive binding ELISA); conditions: for binding to recombinant C35 protein: ELISA and Western Blot
Protocol: Hybridoma cell lines 1F2.4.1 and 1B3.6.1, specific for C35 polypeptides, were prepared using hybridoma technology. (Kohler et al., Nature 256:495 (1975); Kohler et al., Eur. J. Immunol. 6:511 (1976); Kohler et al., Eur. J. Immunol. 6:292 (1976); Hammerling et al., in: Monoclonal Antibodies and T-Cell Hybridomas, Elsevier, N.Y., pp. 571-681 (1981)). Briefly, hybridoma cell lines were generated using standard PEG fusion to the non-secreting myeloma cell line NS-1 (P3/NS1/1-AG4-1, ATCC #TIB-18) of splenocytes from BALB/c mice immunized with syngeneic BCA34 fibroblast tumor cells transduced to over express C35. Following PEG fusion to NS-1, the hybridomas were grown in methylcellulose semi-solid media. Approximately 2 weeks later, hybridoma colonies were isolated into 96 well plates and individual supernatants were tested for reactivity with C35 by ELISA, Western blot, and immunohistochemistry. Positive hybridoma colonies were subcloned and screened for reactivity twice to ensure clonality. Antibodies were isolated from hybridoma supernatants by protein G affinity purification using standard methods. […] In addition, the present inventors developed intracellular staining flow cytometry assays for quantitative analysis using antibodies from hybridoma cell line 1F2 conjugated to Alexa-647 fluorochrome. Each of these antibodies is distinct, yet both are specific for C35 protein. It is possible to immunoprecipitate C35 protein from cell lysates with either of these antibodies and detect with the other.

Molecule	epitope specificity [1]	tumor growth, one antibody with paclitaxel [2]	competitive binding ELISA (C35)	binding to recombinant C35 protein (C35)	immunohistochemistry staining (C35; formalin fixed, paraffin embedded)
B1	specific for an epitope within C35 residues 105-115	neither the 1F2 nor 1B3 administered individually with the chemotherapeutic agent paclitaxel was effective in inhibiting tumor growth	bind different epitopes of the C35 protein	specifically bind recombinant C35 protein in ELISA and Western Blot assays	–
B2	specific for an epitope within the C35 residues 48-104	neither the 1F2 nor 1B3 administered individually with the chemotherapeutic agent paclitaxel was effective in inhibiting tumor growth	bind different epitopes of the C35 protein	specifically bind recombinant C35 protein in ELISA and Western Blot assays	specifically stain formalin fixed, paraffin embedded C35 positive tumors and cell lines
